The results in this text go back to US20240218393, “VECTORS ENCODING GENE EDITING SYSTEMS AND USES THEREOF” (Mammoth Biosciences, Inc., published 2024).

T1: CasM.19952
T1 chain: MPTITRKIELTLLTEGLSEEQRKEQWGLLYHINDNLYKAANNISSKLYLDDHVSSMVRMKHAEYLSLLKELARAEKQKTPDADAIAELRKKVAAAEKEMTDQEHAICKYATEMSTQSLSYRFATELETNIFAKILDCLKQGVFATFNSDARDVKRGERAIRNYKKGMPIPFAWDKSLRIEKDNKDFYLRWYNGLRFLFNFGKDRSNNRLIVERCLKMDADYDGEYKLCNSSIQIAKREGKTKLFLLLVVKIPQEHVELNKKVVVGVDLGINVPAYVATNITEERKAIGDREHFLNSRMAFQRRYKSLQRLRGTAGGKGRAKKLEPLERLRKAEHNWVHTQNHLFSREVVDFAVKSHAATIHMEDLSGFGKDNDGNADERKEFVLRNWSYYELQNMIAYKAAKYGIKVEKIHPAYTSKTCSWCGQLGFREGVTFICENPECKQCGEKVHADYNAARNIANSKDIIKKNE

B1: sgRNA SEQ 202 ; target of sgRNA SEQ 202 (protospacer) (ssRNA ; dsDNA)
RNA: UGGGGCAGUUGGUUGCCCUUAGCCUGAGGCAUUUAUUGCACUCGGGAAGUACCAUUUCUCAGAAAUGGUACAUCCAACUCUAGGCGCCCGCUAAGUUC
DNA 1: TCTAGGCGCCCGCTAAGTTC
DNA 2: GAACTTAGCGGGCGCCTAGA
B2: sgRNA SEQ 206 ; target of sgRNA SEQ 206 (protospacer) (ssRNA ; dsDNA)
RNA: UGGGGCAGUUGGUUGCCCUUAGCCUGAGGCAUUUAUUGCACUCGGGAAGUACCAUUUCUCAGAAAUGGUACAUCCAACGGGGGCGGGGGGGAGAAAAA
DNA 1: GGGGGCGGGGGGGAGAAAAA
DNA 2: TTTTTCTCCCCCCCGCCCCC
B3: sgRNA SEQ 204 ; target of sgRNA SEQ 204 (protospacer) (ssRNA ; dsDNA)
RNA: UGGGGCAGUUGGUUGCCCUUAGCCUGAGGCAUUUAUUGCACUCGGGAAGUACCAUUUCUCAGAAAUGGUACAUCCAACCGUGCUGUUUCCUCCCCACG
DNA 1: CGTGCTGTTTCCTCCCCACG
DNA 2: CGTGGGGAGGAAACAGCACG

The data set deals with T1, CasM.19952. Kind of data set: cell_activity; HEK293T, plasmid lipofection; PAM TCG or KYG (Table 1.1). Conditions: tags: expressed from plasmid or scAAV. The procedure: CasM.19952 was tested for its ability to produce indels in HEK293T cells. Briefly, a plasmid encoding CasM.19952 and a guide RNA was delivered by lipofection to HEK293T cells. This was performed for a variety of guide RNAs targeting up to twenty-four loci adjacent to biochemically determined PAM sequences. Indels were detected by next generation sequencing of PCR amplicons at the targeted loci and indel percentage was calculated as the fraction of sequencing reads containing insertions or deletions relative to an unedited reference sequence. Sequencing libraries with less than 20% of reads aligning to the reference sequence were excluded from the analysis for quality control purposes. “No plasmid” and SpyCas9 were included as negative and positive controls, respectively. […] TABLE 8 describes the sequences of the single guide RNAs tested that provided the greatest percent of reads with indels. Non-bold, non-italicized, capital letters indicate the tracrRNA region of the guide RNA; italicized letters indicate a linker; bold letters indicate the repeat sequence; and the lowercase letters represent the spacer sequence.
B1 gave an activity of 13.5 % indel reads.
To B2 belongs 18.4 % indel reads; to B3, 19.4 % indel reads.
